T1: RAD52(∆C) (Homo sapiens, UniProt P43351 1-400, del401-418)
T1 sequence: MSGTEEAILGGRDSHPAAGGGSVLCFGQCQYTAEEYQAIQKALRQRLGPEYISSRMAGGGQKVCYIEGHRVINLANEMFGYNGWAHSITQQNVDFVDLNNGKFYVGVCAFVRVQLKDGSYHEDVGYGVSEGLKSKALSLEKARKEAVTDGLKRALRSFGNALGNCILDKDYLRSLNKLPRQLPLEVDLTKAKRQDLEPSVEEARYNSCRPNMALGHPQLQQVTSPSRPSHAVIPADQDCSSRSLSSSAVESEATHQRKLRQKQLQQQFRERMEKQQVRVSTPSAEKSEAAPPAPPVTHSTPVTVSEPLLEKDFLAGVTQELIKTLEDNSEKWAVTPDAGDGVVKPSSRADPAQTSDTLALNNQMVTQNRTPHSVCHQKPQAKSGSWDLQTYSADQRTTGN

T2: RAD52(∆RID) (Homo sapiens, UniProt P43351 1-418, del239-290)
T2 sequence: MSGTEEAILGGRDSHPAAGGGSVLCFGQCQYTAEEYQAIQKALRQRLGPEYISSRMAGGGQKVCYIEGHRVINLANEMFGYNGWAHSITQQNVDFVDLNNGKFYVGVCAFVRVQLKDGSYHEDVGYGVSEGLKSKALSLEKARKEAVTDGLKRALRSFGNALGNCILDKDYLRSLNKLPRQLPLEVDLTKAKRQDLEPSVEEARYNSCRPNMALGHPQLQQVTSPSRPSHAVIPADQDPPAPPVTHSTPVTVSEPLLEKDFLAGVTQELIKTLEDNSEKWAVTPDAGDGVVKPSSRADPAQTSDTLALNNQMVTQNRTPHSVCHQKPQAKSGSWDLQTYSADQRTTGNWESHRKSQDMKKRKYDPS

T3: RAD52-OR (open ring) (Homo sapiens, UniProt P43351 1-418)
T3 sequence: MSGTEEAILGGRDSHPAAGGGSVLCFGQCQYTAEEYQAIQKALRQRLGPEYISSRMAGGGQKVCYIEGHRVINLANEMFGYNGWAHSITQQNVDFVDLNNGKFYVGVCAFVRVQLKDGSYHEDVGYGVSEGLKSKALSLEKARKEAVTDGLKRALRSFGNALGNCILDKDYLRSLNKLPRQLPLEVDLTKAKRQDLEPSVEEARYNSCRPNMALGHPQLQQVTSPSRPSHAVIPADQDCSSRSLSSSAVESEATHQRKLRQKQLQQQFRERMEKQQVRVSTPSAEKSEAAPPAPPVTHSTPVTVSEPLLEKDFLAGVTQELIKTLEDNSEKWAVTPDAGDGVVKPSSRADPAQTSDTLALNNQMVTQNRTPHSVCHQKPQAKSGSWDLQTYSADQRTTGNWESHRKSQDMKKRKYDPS

T4: RAD52 NTD (Homo sapiens, UniProt P43351 1-209, del210-418)
T4 sequence: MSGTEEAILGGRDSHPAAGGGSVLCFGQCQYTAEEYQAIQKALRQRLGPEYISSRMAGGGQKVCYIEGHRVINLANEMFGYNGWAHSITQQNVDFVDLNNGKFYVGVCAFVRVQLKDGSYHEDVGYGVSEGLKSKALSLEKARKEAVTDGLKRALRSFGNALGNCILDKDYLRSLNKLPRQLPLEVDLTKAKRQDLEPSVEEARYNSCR

B1: FAM-SSA4 (40 nt) (ssDNA)
DNA: TATCGAATCCGTCTAGTCAACGCTGCCGAATTCTACCAGT
B2: SSA7 (28 nt) (ssDNA)
DNA: CGGCAGCGTTGACTAGACGGATTCGATA

Legend:
RPA [1] = target: T5, RPA (Homo sapiens, UniProt P27694;P15927;P35244 1-616;1-270;1-121); assay: fluorescence anisotropy; 1 mM Mg(OAc)2; FA: 25 mM HEPES pH 8.0, 0.2 M KOAc, 10% glycerol, 0.25 mM TCEP, 1 mM Mg(OAc)2, 0.01% Brij-35, 25 °C, 10 nM DNA; BLI: 25 mM HEPES pH 8.0, 200 mM KOAc, 0.01% Tween-20, 1 mM Mg(OAc)2, 0.25 mM TCEP, 25 °C; settings: protein: recombinant; tags: 10xHis on RPA3; copies: 1;1;1; label: 5' 6-FAM; single strand
RPA(∆WHD) = RPA(∆WHD) (Homo sapiens, UniProt P27694;P15927;P35244 1-616;1-206;1-121); assay: as above; settings: protein: recombinant; tags: 10xHis on RPA3; copies: 1;1;1; label: 5' 6-FAM; single strand
RAD52(∆C) = target: T1, RAD52(∆C); assay: as above; settings: protein: recombinant; tags: none (tags removed); chain copies: 11; label: 5' 6-FAM; single strand
RAD52(∆RID) = target: T2, RAD52(∆RID); assay: as above; settings: protein: recombinant; tags: none (tags removed); label: 5' 6-FAM; single strand
RAD52-OR (open ring) = target: T3, RAD52-OR (open ring); assay: fluorescence anisotropy; 1 mM Mg(OAc)2; ring concentration (10-mer); FA: 25 mM HEPES pH 8.0, 0.2 M KOAc, 10% glycerol, 0.25 mM TCEP, 1 mM Mg(OAc)2, 0.01% Brij-35, 25 °C, 10 nM DNA; BLI: 25 mM HEPES pH 8.0, 200 mM KOAc, 0.01% Tween-20, 1 mM Mg(OAc)2, 0.25 mM TCEP, 25 °C; settings: protein: recombinant; tags: none (tags removed); chain copies: 10; label: 5' 6-FAM; single strand
RAD52 NTD = target: T4, RAD52 NTD; assay: fluorescence anisotropy; 1 mM Mg(OAc)2; ring concentration (11-mer); FA: 25 mM HEPES pH 8.0, 0.2 M KOAc, 10% glycerol, 0.25 mM TCEP, 1 mM Mg(OAc)2, 0.01% Brij-35, 25 °C, 10 nM DNA; BLI: 25 mM HEPES pH 8.0, 200 mM KOAc, 0.01% Tween-20, 1 mM Mg(OAc)2, 0.25 mM TCEP, 25 °C; settings: protein: recombinant; tags: none (tags removed); chain copies: 11; label: 5' 6-FAM; single strand
RPA [2] = target: T5, RPA; assay: cryo-EM (3.2 Å, trimeric core); 2 mM Mg(OAc)2; FA: 25 mM HEPES pH 8.0, 0.2 M KOAc, 10% glycerol, 0.25 mM TCEP, 1 mM Mg(OAc)2, 0.01% Brij-35, 25 °C, 10 nM DNA; BLI: 25 mM HEPES pH 8.0, 200 mM KOAc, 0.01% Tween-20, 1 mM Mg(OAc)2, 0.25 mM TCEP, 25 °C; settings: protein: recombinant; tags: 10xHis on RPA3; copies: 1;1;1; single strand

T5 sequence (P27694 whole entry, chain 1 of 3): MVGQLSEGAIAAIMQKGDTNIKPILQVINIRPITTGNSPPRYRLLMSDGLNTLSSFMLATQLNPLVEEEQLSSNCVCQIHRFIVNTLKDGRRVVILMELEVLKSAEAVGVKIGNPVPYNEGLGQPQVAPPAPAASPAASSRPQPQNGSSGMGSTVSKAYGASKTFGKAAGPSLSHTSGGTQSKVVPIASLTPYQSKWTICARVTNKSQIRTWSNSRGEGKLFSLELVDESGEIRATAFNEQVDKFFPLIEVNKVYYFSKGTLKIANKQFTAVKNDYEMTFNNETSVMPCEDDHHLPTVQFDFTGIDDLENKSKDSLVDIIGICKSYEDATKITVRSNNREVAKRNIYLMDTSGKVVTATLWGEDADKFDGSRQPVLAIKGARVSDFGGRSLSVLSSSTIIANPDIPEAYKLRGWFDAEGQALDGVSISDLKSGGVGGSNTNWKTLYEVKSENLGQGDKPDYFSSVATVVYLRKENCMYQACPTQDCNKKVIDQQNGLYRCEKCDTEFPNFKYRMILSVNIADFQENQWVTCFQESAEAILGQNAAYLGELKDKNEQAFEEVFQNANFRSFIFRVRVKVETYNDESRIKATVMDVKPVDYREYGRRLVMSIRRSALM
T5 sequence (P15927 whole entry, chain 2 of 3): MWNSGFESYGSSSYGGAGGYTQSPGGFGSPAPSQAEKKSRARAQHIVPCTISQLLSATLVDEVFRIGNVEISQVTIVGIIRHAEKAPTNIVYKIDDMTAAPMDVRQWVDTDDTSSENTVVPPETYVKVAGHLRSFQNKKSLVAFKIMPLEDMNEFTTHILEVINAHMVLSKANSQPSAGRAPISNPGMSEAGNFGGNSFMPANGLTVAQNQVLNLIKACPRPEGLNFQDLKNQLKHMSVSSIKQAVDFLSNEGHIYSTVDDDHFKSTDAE
T5 sequence (P35244 whole entry, chain 3 of 3): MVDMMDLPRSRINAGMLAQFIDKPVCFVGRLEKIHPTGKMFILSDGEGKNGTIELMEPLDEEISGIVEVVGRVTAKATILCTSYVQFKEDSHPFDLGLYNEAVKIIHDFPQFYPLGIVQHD
RPA(∆WHD), sequence (P27694 whole entry, chain 1 of 3): as the sequence (P27694 whole entry, chain 1 of 3) above
RPA(∆WHD), sequence (P15927 1-206, chain 2 of 3): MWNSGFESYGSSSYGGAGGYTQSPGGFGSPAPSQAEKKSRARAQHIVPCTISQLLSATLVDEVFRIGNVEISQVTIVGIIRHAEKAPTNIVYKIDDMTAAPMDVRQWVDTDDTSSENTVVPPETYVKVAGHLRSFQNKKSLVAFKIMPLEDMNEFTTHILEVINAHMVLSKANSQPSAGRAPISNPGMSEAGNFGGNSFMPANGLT
RPA(∆WHD), sequence (P35244 whole entry, chain 3 of 3): as the sequence (P35244 whole entry, chain 3 of 3) above

Binder | Kd (RPA [1]) [nM] | Kd (RPA(∆WHD)) [nM] | Kd (RAD52(∆C)) [nM] | Kd (RAD52(∆RID)) [nM] | Kd (RAD52-OR (open ring)) [nM] | Kd (RAD52 NTD) [nM] | binding result (RPA [2])
B1 | 3.6 ± 0.5 | 3.4 ± 0.9 | 0.2 ± 0.2 | 0.7 ± 0.2 | 0.3 ± 0.1 | 3.2 ± 0.6 | –
B2 | – | – | – | – | – | – | binds

Source: publication PMC11096129
